Measurements: US12139520B2 (priority 2020, dated 2024)
Bridge positions count the residues as written; N and C are the ends. Square brackets hold non-standard residues; d marks the D form. Ends that are not written are not given here. Hyp = O=C(O)[C@@H]1C[C@@H](O)CN1; Cit = NC(=O)NCCC[C@H](N)C(=O)O

T1: hAMY3R (human, UniProt P30988)
T1 sequence 1: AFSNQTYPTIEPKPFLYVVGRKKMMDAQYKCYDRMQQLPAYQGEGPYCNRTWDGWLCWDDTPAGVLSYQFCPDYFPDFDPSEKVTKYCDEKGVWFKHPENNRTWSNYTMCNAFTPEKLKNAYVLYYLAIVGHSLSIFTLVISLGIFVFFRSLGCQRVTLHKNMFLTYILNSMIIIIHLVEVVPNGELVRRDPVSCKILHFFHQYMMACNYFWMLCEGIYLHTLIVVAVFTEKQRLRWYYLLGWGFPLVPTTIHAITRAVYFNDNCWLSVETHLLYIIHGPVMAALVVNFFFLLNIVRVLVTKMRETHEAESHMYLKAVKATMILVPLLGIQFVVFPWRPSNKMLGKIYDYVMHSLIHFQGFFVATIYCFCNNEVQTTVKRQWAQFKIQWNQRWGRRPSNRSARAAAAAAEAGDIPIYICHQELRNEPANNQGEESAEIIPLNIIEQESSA
T1 sequence 2: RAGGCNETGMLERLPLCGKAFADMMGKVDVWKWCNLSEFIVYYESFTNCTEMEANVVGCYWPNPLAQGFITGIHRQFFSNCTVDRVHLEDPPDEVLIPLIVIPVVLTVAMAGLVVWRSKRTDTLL


target: T1, hAMY3R; test: cell-based or functional assay

| Binder | hAMY3R EC50 (cAMP) |
| --- | --- |
| GCRFGTCTVQ[Cit]LAHQIYQFTDKDKDNVAPRTKISPQG[Hyp]-NH2 (disulfide 2-7 (inferred); ends not checked) [SEQ ID NO: 294] | 0.045 nM |
| GCRIGTCTVQ[Cit]LAHQIYQFTDKFKDNVAPRSKISPQT[Hyp]-NH2 (disulfide 2-7 (inferred); ends not checked) [SEQ ID NO: 295] | 0.194 nM |
| KCNTATCTVQRLAHQIYQFTDKDKDNVPPTNVGSNG[Hyp]-NH2 (disulfide 2-7 (inferred); not fully specified; ends not checked) [SEQ ID NO: 30] | 0.008 nM |
| GCRWGTCTVQ[Cit]LAHQIYQFTDKDKDNVAPRSKISPQT[Hyp]-NH2 (disulfide 2-7 (inferred); ends not checked) [SEQ ID NO: 296] | 0.392 nM |
| GCRTGTCTVQ[Cit]LAHQIYQFTDKDKDNVAPRSNIGPNG[Hyp]-NH2 (disulfide 2-7 (inferred); ends not checked) [SEQ ID NO: 297] | 0.026 nM |
| GCRTGTCTVQ[Cit]LAHQIYQFTDKDKDNVAPRTKVGPQGY-NH2 (disulfide 2-7 (inferred); ends not checked) [SEQ ID NO: 298] | 0.057 nM |
| GCRTGTCTVQ[Cit]LAHQIYQFTDKDKDNVAPRSKIGPNG[Hyp]-NH2 (disulfide 2-7 (inferred); ends not checked) [SEQ ID NO: 299] | 0.11 nM |
| GCRFGTCTVQ[Cit]LAHQIYQFTDKDKDNVAPRSNISPQG[Hyp]-NH2 (disulfide 2-7 (inferred); ends not checked) [SEQ ID NO: 300] | 0.076 nM |
| GCRTGTCTVQ[Cit]LAHQIYQFTDKDKDNVAPRTKIGPQG[Hyp]-NH2 (disulfide 2-7 (inferred); ends not checked) [SEQ ID NO: 301] | 0.138 nM |
| GCRTGTCTVQ[Cit]LAHQIYQFTDKDKDNVAPRTNVSPNG[Hyp]-NH2 (disulfide 2-7 (inferred); ends not checked) [SEQ ID NO: 302] | 0.071 nM |
| KCNTATCTVQRLAHQIYQFTDKDKDNVAPTNVGSNG[Hyp]-NH2 (disulfide 2-7 (inferred); ends not checked) [SEQ ID NO: 31] | 0.008 nM |
| RCQTSTCTVARLAEQIAQYTDKDKDQVAPPTNVGSNS[Hyp]-NH2 (disulfide 2-7 (inferred); ends not checked) [SEQ ID NO: 32] | 0.008 nM |

The next lines start with the values.

| hAMY3R EC50 (cAMP) | Binder |
| --- | --- |
| 0.103 nM | GCRTGTCTVQ[Cit]LAHQIYQFTDKDKDNVAPRSNIGPQG[Hyp]-NH2 (disulfide 2-7 (inferred); ends not checked) [SEQ ID NO: 303] |
| 0.139 nM | GCRTGTCTVQ[Cit]LAHQIYQFTDKDKDNVAPRSNVSPNG[Hyp]-NH2 (disulfide 2-7 (inferred); ends not checked) [SEQ ID NO: 304] |
| 0.085 nM | GCRFGTCTVQ[Cit]LAHQIYQFTDKDKDNVAPRSKVSPQG[Hyp]-NH2 (disulfide 2-7 (inferred); ends not checked) [SEQ ID NO: 305] |
| 0.003 nM | KCNTSTCTVAWLADQITQFSNKDKAQVSPPTEVGPNS[Hyp]-NH2 (disulfide 2-7 (inferred); ends not checked) [SEQ ID NO: 306] |
| 0.01 nM | RCNASTCTVNWLADQITQFSNKDKAQVSPPTEVGPNS[Hyp]-NH2 (disulfide 2-7 (inferred); ends not checked) [SEQ ID NO: 307] |
| 0.014 nM | KCNTATCTVQWLAHAIYQFTDKDKDNVAPPTNVGSNG[Hyp]-NH2 (disulfide 2-7 (inferred); ends not checked) [SEQ ID NO: 308] |
| 0.025 nM | KCNTATCTVQWLAHQIAQFTDKDKDNVAPPTNVGSNG[Hyp]-NH2 (disulfide 2-7 (inferred); ends not checked) [SEQ ID NO: 309] |
| 0.003 nM | KCNTSTCTVAWLADQITQFSDKDKANVSPPTEVGPNS[Hyp]-NH2 (disulfide 2-7 (inferred); ends not checked) [SEQ ID NO: 310] |
| 0.06 nM | GCRFGTCTVQWLANFLYQFTDKDKDNVAPRTNVGPQGY [SEQ ID NO: 311] |
| 0.012 nM | KCNTATCTVQWLAHQIYQFTDKDKDNVAPRTKVGSNG[Hyp]-NH2 (disulfide 2-7 (inferred); ends not checked) [SEQ ID NO: 312] |
| 0.004 nM | KCNTATCTVQWLAHQIYQFADKDKDNVAPPTNVGSNG[Hyp]-NH2 (disulfide 2-7 (inferred); ends not checked) [SEQ ID NO: 313] |
| 0.008 nM | KCNTATCTVQWLAHQIYQFTDKDKANVAPPTNVGSNG[Hyp]-NH2 (disulfide 2-7 (inferred); ends not checked) [SEQ ID NO: 314] |
| 0.012 nM | KCNTATCTVQWLAHQIYQFTDKDKDNAAPPTNVGSNG[Hyp]-NH2 (disulfide 2-7 (inferred); ends not checked) [SEQ ID NO: 315] |
| 0.012 nM | KCNTATCTVQWLAHQIYQFTDKDKDNVAPATNVGSNG[Hyp]-NH2 (disulfide 2-7 (inferred); ends not checked) [SEQ ID NO: 316] |

target: hAM1R (human, UniProt Q16602); test: cell-based or functional assay

| Binder | hAM1R EC50 (cAMP) |
| --- | --- |
| GCRFGTCTVQ[Cit]LAHQIYQFTDKDKDNVAPRTKISPQG[Hyp]-NH2 (disulfide 2-7 (inferred); ends not checked) [SEQ ID NO: 294] | > 5000 nM |
| GCRIGTCTVQ[Cit]LAHQIYQFTDKFKDNVAPRSKISPQT[Hyp]-NH2 (disulfide 2-7 (inferred); ends not checked) [SEQ ID NO: 295] | > 5000 nM |
| KCNTATCTVQRLAHQIYQFTDKDKDNVPPTNVGSNG[Hyp]-NH2 (disulfide 2-7 (inferred); not fully specified; ends not checked) [SEQ ID NO: 30] | > 5000 nM |
| GCRWGTCTVQ[Cit]LAHQIYQFTDKDKDNVAPRSKISPQT[Hyp]-NH2 (disulfide 2-7 (inferred); ends not checked) [SEQ ID NO: 296] | > 5000 nM |
| GCRTGTCTVQ[Cit]LAHQIYQFTDKDKDNVAPRSNIGPNG[Hyp]-NH2 (disulfide 2-7 (inferred); ends not checked) [SEQ ID NO: 297] | > 5000 nM |
| GCRTGTCTVQ[Cit]LAHQIYQFTDKDKDNVAPRTKVGPQGY-NH2 (disulfide 2-7 (inferred); ends not checked) [SEQ ID NO: 298] | > 5000 nM |
| GCRTGTCTVQ[Cit]LAHQIYQFTDKDKDNVAPRSKIGPNG[Hyp]-NH2 (disulfide 2-7 (inferred); ends not checked) [SEQ ID NO: 299] | > 5000 nM |
| GCRFGTCTVQ[Cit]LAHQIYQFTDKDKDNVAPRSNISPQG[Hyp]-NH2 (disulfide 2-7 (inferred); ends not checked) [SEQ ID NO: 300] | > 5000 nM |
| GCRTGTCTVQ[Cit]LAHQIYQFTDKDKDNVAPRTKIGPQG[Hyp]-NH2 (disulfide 2-7 (inferred); ends not checked) [SEQ ID NO: 301] | > 5000 nM |
| GCRTGTCTVQ[Cit]LAHQIYQFTDKDKDNVAPRTNVSPNG[Hyp]-NH2 (disulfide 2-7 (inferred); ends not checked) [SEQ ID NO: 302] | 4330 nM |
| KCNTATCTVQRLAHQIYQFTDKDKDNVAPTNVGSNG[Hyp]-NH2 (disulfide 2-7 (inferred); ends not checked) [SEQ ID NO: 31] | > 5000 nM |
| RCQTSTCTVARLAEQIAQYTDKDKDQVAPPTNVGSNS[Hyp]-NH2 (disulfide 2-7 (inferred); ends not checked) [SEQ ID NO: 32] | > 5000 nM |

Second part, the binder after the results:

| hAM1R EC50 (cAMP) | Binder |
| --- | --- |
| > 5000 nM | GCRTGTCTVQ[Cit]LAHQIYQFTDKDKDNVAPRSNIGPQG[Hyp]-NH2 (disulfide 2-7 (inferred); ends not checked) [SEQ ID NO: 303] |
| > 5000 nM | GCRTGTCTVQ[Cit]LAHQIYQFTDKDKDNVAPRSNVSPNG[Hyp]-NH2 (disulfide 2-7 (inferred); ends not checked) [SEQ ID NO: 304] |
| > 5000 nM | GCRFGTCTVQ[Cit]LAHQIYQFTDKDKDNVAPRSKVSPQG[Hyp]-NH2 (disulfide 2-7 (inferred); ends not checked) [SEQ ID NO: 305] |
| > 5000 nM | KCNTSTCTVAWLADQITQFSNKDKAQVSPPTEVGPNS[Hyp]-NH2 (disulfide 2-7 (inferred); ends not checked) [SEQ ID NO: 306] |
| > 5000 nM | RCNASTCTVNWLADQITQFSNKDKAQVSPPTEVGPNS[Hyp]-NH2 (disulfide 2-7 (inferred); ends not checked) [SEQ ID NO: 307] |
| > 5000 nM | KCNTATCTVQWLAHAIYQFTDKDKDNVAPPTNVGSNG[Hyp]-NH2 (disulfide 2-7 (inferred); ends not checked) [SEQ ID NO: 308] |
| > 5000 nM | KCNTATCTVQWLAHQIAQFTDKDKDNVAPPTNVGSNG[Hyp]-NH2 (disulfide 2-7 (inferred); ends not checked) [SEQ ID NO: 309] |
| > 5000 nM | KCNTSTCTVAWLADQITQFSDKDKANVSPPTEVGPNS[Hyp]-NH2 (disulfide 2-7 (inferred); ends not checked) [SEQ ID NO: 310] |
| > 5000 nM | GCRFGTCTVQWLANFLYQFTDKDKDNVAPRTNVGPQGY [SEQ ID NO: 311] |
| > 5000 nM | KCNTATCTVQWLAHQIYQFTDKDKDNVAPRTKVGSNG[Hyp]-NH2 (disulfide 2-7 (inferred); ends not checked) [SEQ ID NO: 312] |
| > 5000 nM | KCNTATCTVQWLAHQIYQFADKDKDNVAPPTNVGSNG[Hyp]-NH2 (disulfide 2-7 (inferred); ends not checked) [SEQ ID NO: 313] |
| > 5000 nM | KCNTATCTVQWLAHQIYQFTDKDKANVAPPTNVGSNG[Hyp]-NH2 (disulfide 2-7 (inferred); ends not checked) [SEQ ID NO: 314] |
| > 5000 nM | KCNTATCTVQWLAHQIYQFTDKDKDNAAPPTNVGSNG[Hyp]-NH2 (disulfide 2-7 (inferred); ends not checked) [SEQ ID NO: 315] |
| > 5000 nM | KCNTATCTVQWLAHQIYQFTDKDKDNVAPATNVGSNG[Hyp]-NH2 (disulfide 2-7 (inferred); ends not checked) [SEQ ID NO: 316] |
